Article PMC11661447

Biological target: RNA-dependent RNA polymerase (RdRp) of HuNoV GII.4 Sydney strain (human norovirus GII.4 Sydney strain)
Experiment: SEC + AUC; purified RdRp alone, physiologically relevant conditions (pH 7.5); sedimentation velocity of 10 μM RdRp at 40,000 rpm, 22°C; monomer, dimers and higher-order oligomers

Q: Which percent as dimers does the source give for “RNA-dependent RNA polymerase (RdRp) of HuNoV GII.4 Sydney strain (enzyme)” here?
A: 15%

Q: And the percent as monomer?
A: 75%

Q: And the stoichiometry N?
A: 2
